Experimental data reported in patent US20160017024A1 (Five Prime, published 2016).

What was measured:
[1] = target: full length human LTK with an HA tag at the C-terminus, expressed on transfected cells (human, UniProt P29376 17-864); test: cell-based or functional assay
Mouse LTK ECD-Fc = target: T1, Mouse LTK ECD-Fc (mouse); test: SPR (Biacore T100), ECD-Fc captured on Protein A CM4 chip
T1 construct: also called mouse LTK ECD-Fc (human Fc)
Procedure: The kₐ, kd, and KD for binding of human FAM150A to human LTK ECD-Fc (SEQ ID NO: 23) and mouse LTK ECD-Fc (SEQ ID NO: 25) was determined as follows. Binding kinetics of FAM150A to human and mouse LTK ECD-Fc fusion proteins was determined using Biacore T100 SPR (GE Healthcare Life Sciences, Piscataway, N.J.). LTK ECD-Fc fusions were captured on a CM4 sensor chip immobilized with Protein A (Thermo Scientific, Rockford, Ill.). HBS-P (GE Healthcare Life Sciences, Piscataway, N.J.) was used as the running and dilution buffer. Capture levels of the ECD-Fc fusions were adjusted to approximately 300-500RU so that binding values would be greater than the levels of non-specific binding to the reference flow cell. FAM150A was injected at […] (100 nM, 33.3 nM, 11.1 nM, 3.7 nM, 1.2 nM, 0.41 nM, 0.13 nM, 0.046 nM and 0 nM) for 120 seconds. The association constant, dissociation constant, and affinity of FAM150A for LTK Fc-ECD fusions was calculated using the Biacore T100 Evaluation software package using the 1:1 binding model.

Chain of full length human LTK with an HA tag at the C-terminus, expressed on transfected cells (P29376 17-864): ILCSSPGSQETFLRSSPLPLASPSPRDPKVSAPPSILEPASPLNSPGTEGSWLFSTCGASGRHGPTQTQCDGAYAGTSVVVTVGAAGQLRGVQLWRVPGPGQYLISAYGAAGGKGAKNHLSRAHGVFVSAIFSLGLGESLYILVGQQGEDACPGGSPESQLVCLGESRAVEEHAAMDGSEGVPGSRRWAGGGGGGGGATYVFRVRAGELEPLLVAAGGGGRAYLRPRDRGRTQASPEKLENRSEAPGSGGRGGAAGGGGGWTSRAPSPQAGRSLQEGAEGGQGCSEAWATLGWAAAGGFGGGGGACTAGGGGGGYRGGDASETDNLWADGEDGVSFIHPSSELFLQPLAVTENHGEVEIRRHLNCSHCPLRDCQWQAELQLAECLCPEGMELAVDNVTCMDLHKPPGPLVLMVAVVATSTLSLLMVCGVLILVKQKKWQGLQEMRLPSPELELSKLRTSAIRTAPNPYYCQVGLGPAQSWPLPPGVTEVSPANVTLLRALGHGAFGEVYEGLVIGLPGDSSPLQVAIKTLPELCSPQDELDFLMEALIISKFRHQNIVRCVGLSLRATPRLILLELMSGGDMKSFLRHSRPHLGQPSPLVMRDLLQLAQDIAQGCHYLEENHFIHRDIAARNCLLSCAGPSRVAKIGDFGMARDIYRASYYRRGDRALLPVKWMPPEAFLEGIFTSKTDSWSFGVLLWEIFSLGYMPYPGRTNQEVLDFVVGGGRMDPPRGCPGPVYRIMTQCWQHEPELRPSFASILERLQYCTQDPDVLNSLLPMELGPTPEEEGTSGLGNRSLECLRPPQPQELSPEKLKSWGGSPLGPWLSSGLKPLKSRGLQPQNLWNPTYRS
T1 sequence (chain, as listed by the source limits assumed): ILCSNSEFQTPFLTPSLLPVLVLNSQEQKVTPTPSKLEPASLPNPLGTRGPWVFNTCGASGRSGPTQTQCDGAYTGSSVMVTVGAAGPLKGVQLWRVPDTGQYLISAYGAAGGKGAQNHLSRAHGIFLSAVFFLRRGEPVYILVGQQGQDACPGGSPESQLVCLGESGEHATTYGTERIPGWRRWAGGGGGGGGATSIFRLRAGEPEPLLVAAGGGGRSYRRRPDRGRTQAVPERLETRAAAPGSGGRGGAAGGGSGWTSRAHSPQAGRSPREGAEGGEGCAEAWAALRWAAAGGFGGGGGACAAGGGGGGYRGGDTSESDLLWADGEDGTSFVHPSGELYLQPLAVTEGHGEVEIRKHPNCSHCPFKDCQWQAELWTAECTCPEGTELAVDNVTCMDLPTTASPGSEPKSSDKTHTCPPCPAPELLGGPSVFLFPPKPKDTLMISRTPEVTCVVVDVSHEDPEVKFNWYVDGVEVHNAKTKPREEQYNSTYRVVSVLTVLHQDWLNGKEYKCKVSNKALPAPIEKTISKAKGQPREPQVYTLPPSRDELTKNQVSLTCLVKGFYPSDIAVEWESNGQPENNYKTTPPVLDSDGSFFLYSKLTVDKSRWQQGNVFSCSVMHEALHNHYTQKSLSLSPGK

B1: Human FAM150B (ligand)
chain: GAEPREPADGQALLRLVVELVQELRKHHSAEHKGLQLLGRDCALGRAEAAGLGPSPEQRVEIVPRDLRMKDKFLKHLTGPLYFSPKCSKHFHRLYHNTRDCTIPAYYKRCARLLTRLAVSPVCMEDKQ
induction of LTK phosphorylation relative to an unrelated control protein [1]: > 2 fold

B2: Human FAM150A (ligand)
chain: RPRGRRGARVTDKEPKPLLFLPAAGAGRTPSGSRSAEIFPRDSNLKDKFIKHFTGPVTFSPECSKHFHRLYYNTRECSTPAYYKRCARLLTRLAVSPLCSQT
notes: Expressed in HEK 293 6E cells (or HEK293T supernatant) and secreted
fold lower affinity than to human LTK ECD-Fc (Mouse LTK ECD-Fc): ~30 fold | EC50 for FAM150A-induced LTK phosphorylation [1]: 1.96 nM | induction of LTK phosphorylation relative to an unrelated control protein [1]: > 20 fold
